Test results reported in patent US20120201826A1 (NOV IMMUNE S A, published 2012).

T1: recombinant human RANTES (huRANTES, Peprotech) (human, UniProt P13501 24-91)
T1 sequence: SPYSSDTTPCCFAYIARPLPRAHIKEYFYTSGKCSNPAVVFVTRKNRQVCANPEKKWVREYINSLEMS

T2: huRANTES immobilized on glycosaminoglycan (biotin labeled heparin) (human, UniProt P13501 24-91)
T2 construct: also called huRANTES immobilized on GAG; huRANTES in the context of GAG
T2 sequence: T1 sequence

T3: native human RANTES produced by THP1 cells (human, UniProt P13501 24-91)
T3 sequence: T1 sequence

B1: CG11 antibody, IgG1 format (antibody, V domains shown)
VH: QVQLVQSGTEVKKPGATVNVSCKISGHLFTDYYIHWVQQAPGKGLEWVGLIDPKDGEIQYAEKFQARVTITADTSTDTVYMELNSLRSEDTAVYYCATEVLSGIRVFPFDPWGQGTLVTVSS
VL: QSVLTQPPSVSGAPGQRVTISCTGSSSNIGAGYDVYWYQQFPGKAPKLLIYDTNNRPPGVPDRFSGSKSGTSASLAISGLQTEDEADYYCQSYDIALSNSNVVFGGGTKLTVL
B2: A9 antibody, IgG1 format (antibody, V domains shown)
VH: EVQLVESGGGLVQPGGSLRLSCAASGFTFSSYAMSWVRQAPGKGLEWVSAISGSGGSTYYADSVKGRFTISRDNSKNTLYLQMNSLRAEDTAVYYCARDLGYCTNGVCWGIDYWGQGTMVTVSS
VL: NFMLTQPHSVSESPGKTVTISCTRSSGSIADNYVQWYQQRPGSAPTTIIYDDDQRLSGVPDRFSGSIDTSSNSASLSISGLRTEDEADYYCQSYDDSNDVFGGGTKLTVL
B3: H6 antibody, IgG1 format (antibody, V domains shown)
VH: QVQLVQSGAEVKRPGASVKVSCKVSGNTLSKQSMHWVRQAPGKGFEWMGSSNPEDDETLYAKKFQGRVTMTEDTSTDTAYLELSSLRSEDTAVYYCATDSQGFYYYYGMDVWGQGTLVTVSS
VL: QSVLTQPPSVSGAPGQRVTISCTGSSSNIGADYDVHWYQQLPGTVPKLLIYDNINRPSGVPDRFSGSKSGTSASLAITGLQAEDEADYYCQSYDSSLSGVLFGGGTKVTVL
B4: H11 antibody, IgG1 format (antibody, V domains shown)
VH: QVQLVQSGAEVKKPGSSVKVSCKASGGISDNYALSWVRQAPGQGLEWMGGFIPLVDTTNYAQRFQGRLTITADDSMSTVYMELRSLRSDDTAMYYCAREQVAVGPGPTSDRGPDGLDVWGQGTMVTVSS
VL: QSVLTQPSSVSGAPGHRVTISCTGSNSNLGADYDVHWYQQLPGSAPKLLIYDNNIRPSGVPARFSGSKSGTSASLAITGLQAEDEADYYCQSYDTGLTSSDVIFGGGTKLTVL
B5: D1 antibody, IgG1 format (antibody, V domains shown)
VH: EVQLVQSGPEVKKPGATVKISCNVSAETFTDYYIHWVKQAPGRGLEWMGLVDSEEDGETLFAETFRGRVALTADRSTNTAYMELRSLRHDDTAVYYCAAEYGEYGFFQSWGQGTLVTVSS
VL: QSVLTQPPSVSGAPGQRVTISCTGSSSNIGADYDVNWYQQLPGTSPKLLIYGDINRPSGVPDRFSASKSGTSASLAITGLQAEDEADYYCQSFDNSLSGSVIFGGGTKLTVL
B6: E7 antibody, IgG1 format (antibody, V domains shown)
VH: QVQLVQSGAEVKKPGSSVKVSCKISGGISDNYALSWVRQAPGQGLEWMGAVIPLVETTSYAQRFQGRLTITADDSLNTLYMELGSLRSDDTAMYYCAREQVAVGPGPTSNRGPDGLDVWGRGTMVTVSS
VL: QSVLTQPPSVSGAPGQRVTISCTGSSSNIGDGYDVHWYQQLPGTAPKLLIYGNSNRPSGVPDRFSGSTSGTSASLAIRGLQSEDEADYYCGTWDDILNGWVFGGGTKLTVL
B7: C8 antibody, IgG1 format (antibody, V domains shown)
VH: QVQLVESGGGVVQPGRSLRLSCAASGFTFSSYAMHWVRQAPGKGLEWVAVISYDGSNKYYADSVKGRFTISRDNSKNTLYLQMNSLRAEDTAVYYCARETFPHYYYYYMDVWGRGTLVTVSS
VL: SYVLTQPPSVSVAPGQTARITCEGDDTDIGTVNWYQQKPGQAPVLVISEDGYRPSGIPERFSGSNSGNTATLTISRVEAGDEADYYCQFWDVDSDHPVFGGGTQLTVLG
B8: 1D9 antibody, IgG1 format (antibody, V domains shown)
VH: QVQLVQSGAEVKKPGASVKVSCKVSGYTLTEFAMHWVRQAPGKGLEWMGGFVPEDGETIYAQKFQGRVTMTEDTSTDTAYMELSSLRSEDTAVYYCATDPLYTPGLEPWGQGTTVTVSS
VL: SYVLTQPPSVSVAPGQTARITCGGNNIESKSVHWYQQKPGQAPVLVVYDDSDRPSGIPERFSGSNSGNTATLTISRVEAGDEADYYCQVWDSNTDHWVFGGGTKLTVLG
B9: H6 scFv (scFv)
chain: QVQLVQSGAEVKRPGASVKVSCKVSGNTLSKQSMHWVRQAPGKGFEWMGSSNPEDDETLYAKKFQGRVTMTEDTSTDTAYLELSSLRSEDTAVYYCATDSQGFYYYYGMDVWGQGTLVTVSSQSVLTQPPSVSGAPGQRVTISCTGSSSNIGADYDVHWYQQLPGTVPKLLIYDNINRPSGVPDRFSGSKSGTSASLAITGLQAEDEADYYCQSYDSSLSGVLFGGGTKVTVL
B10: G2 scFv (scFv)
chain: QVQLVQSGAEVKKPGASVKVSCRASGYALTELSIHWVRQAPGKGLEWMGGFDPEDGETIYAQNFQGRVIMTEDTSTDTAYMELSSLKSEDTAVYYCATDLTGSRDSWGQGTLVTVSSQSVLTQPASVSGSPGQSITISCTGSRSDIGYYNYVSWYQQHPGKVPKLIIYDVTERPSGVSDRFSGSKSANTASLTISGLQAEDEADYYCSSFSSGDTFVVFGGGTKLTVL
B11: E10 scFv (scFv)
chain: QVQLVESGGGVVQPGRSLRLSCAASGFTFSSYAMHWVRQAPGKGLEWVAVISYDGSNKYYADSVKGRFSISRDNSKNTLYLQMNSLRAEDTAVYYCARETFPHYYYYYMDVWGKGTMVTVSSSYVLTQPPSVSVAPGQTARISCGGGNFDDEGVHWYQQTPGQAPVLVVYDDTGRPSGIPERFSGSSSGNTATLTISRVEAGDEADYYCQAWDSSNDHPVFGGGTQLTVL
B12: 2D1 scFv (scFv)
chain: QVQLVQSGAEVKKPGASVKVSCKVSGYTLNDFAMHWVRQAPGKGLEWMGGYVPEDGDTIYAQKFQGRVTMTEDTSTDTAYMELSSLRSEDTAVYYCATDPLYSGSLSYWGQGTTVTVSSSYVLTQPPSVSVAPGQTARITCGGNNIESKSVHWYQQKPGQAPVLVVYDDSDRPSGIPERFSGSNSGNTATLTISRVEAGDEADYYCQVWDSNTDHWVFGGGTKVTVL

Experiments:
[1] = target: T1, recombinant human RANTES (huRANTES, …); assay: cell-based or functional assay
[2] = target: T2, huRANTES immobilized on …; assay: ELISA: biotin-heparin on streptavidin plate, huRANTES captured on the heparin, IgG detected with anti-human IgG Fc-HRP, OD450; antibody concentration not given
[3] = target: T3, native human RANTES produced by THP1 …; assay: cell-based or functional assay
[4] = target: T1, recombinant human RANTES (huRANTES, …); assay: cell-based or functional assay; remark: listed apart in the source

Row | Binder | Chemotaxis IC50 (nM), 1 nM huRANTES; L1.2-hCCR5 cells; IgG1 format [1] | binding result [2] | Chemotaxis IC50 (nM); L1.2 cells expressing hCCR5, 1 nM huRANTES; scFv format [4] | further results
1 | B1 | 4.8 nM | no binding |  | Calcium Flux IC50 (nM), 10 nM rhuRANTES; L1.2-hCCR5 cells; IgG1 format [1]: 9.5 nM
2 | B2 | 1 nM | no binding |  | Calcium Flux IC50 (nM), 10 nM rhuRANTES; L1.2-hCCR5 cells; IgG1 format [1]: 3.3 nM
3 | B3 | 8.7 nM | no binding |  | Calcium Flux IC50 (nM), 10 nM rhuRANTES; L1.2-hCCR5 cells; IgG1 format [1]: 9 nM
4 | B4 | 1.3 nM | no binding |  | 
5 | B5 | 7 nM | no binding |  | 
6 | B6 | 2.2 nM | no binding |  | 
7 | B7 | 2.1 nM |  |  | Chemotaxis IC50 (nM), 0.2 nM huRANTES; L1.2-hCCR5 cells; IgG1 format [1]: 0.49 nM; Chemotaxis IC50 (nM), native huRANTES from THP1 cells; L1.2-hCCR5 cells; IgG1 format [3]: 1.6 nM
8 | B8 | 0.35 nM |  |  | Chemotaxis IC50 (nM), 0.2 nM huRANTES; L1.2-hCCR5 cells; IgG1 format [1]: 0.038 nM; Chemotaxis IC50 (nM), native huRANTES from THP1 cells; L1.2-hCCR5 cells; IgG1 format [3]: 0.033 nM
9 | B9 |  |  | 25 nM | 
10 | B10 |  |  | 62 nM | 
11 | B11 |  |  | 9.4 nM | 
12 | B12 |  |  | 1.3 nM | 
